The values below come from patent US6790646B2, “Mutants of monoamine oxidase B” (Research Development Foundation, priority 1998, dated 2004).

Where a chain is given by its changes, count along the chain named. A value given as a limit tells only on which side of the number the result lay.

In data set [1] the test system is COS-7 cells. Briefly: Expression levels of wild-type or mutant MAO B in transfected COS-7 cells. To be noted: transiently transfected COS-7 cells, triplicate, six experiments, mean + S.E.M., subunit molecular weight 58,800. As for the experimental part: (§1) The wild-type and mutant MAO B enzymes were expressed in mammalian COS-7 cells, and the enzymatic properties of the native enzyme and its mutant enzymes were determined and compared. Wild-type and mutant MAO B cDNAs were transiently transfected into COS-7 cells by electroporation. Cells were harvested during late log phase growth and resuspended to a concentration of 3.125×10^6 cells/ml in DMEM supplemented with 10% fetal bovine serum (FBS). Fifteen μg of normal or mutant cDNA were added to 0.8 ml (2.5×10^6 cells) of cell suspension. Electroporation was carried out in a Bio-Rad Gene Pulser with a setting of 0.25 kV and 500 μF. Cells were resuspended in 15 ml of DMEM/FBS and incubated at 37° C. with 5% CO2 for 48 h.
(§2) Aliquots (20 μl) of transfected COS-7 cell homogenates were incubated for 10 min at 37° C. in the presence of various concentrations of [^14C]PEA (20 mCi/mmol) or [^14C]benzylamine (10 mCi/mmol) in 50 mM sodium phosphate buffer, pH 7.5 (200 μl total volume). Substrate concentrations ranged from 0.25-2.5 times the Km value (determined in pilot experiments) to yield 10 equally-spaced reciprocal increments. Parallel assays were carried out with untransfected COS-7 cell lysates as a control. Reactions were stopped by addition of 25 μl of 6 N HCl and the deaminated products were extracted by vortexing for 30 seconds with 500 μl of toluene or toluene:ethyl acetate (1:1) for benzylamine or PEA, respectively. Samples were processed as described previously (28). Apparent Km and Vmax values were determined by linear regression analysis of Lineweaver-Burk plots. Kcat values were calculated from the Vmax values divided by the concentration of wild-type or mutant MAO B determined in each experiment. Expression levels of wild-type or mutant MAO B were determined in triplicate for six separate experiments as follows: wild-type=11.1+2.07; F423A=9.30+1.89; E427Q=10.3+1.29; T428A=10.2+2.07; T428S=10.2+1.53 pmol MAO B/mg protein. Data are given as means +S.E.M. pmol/mg of protein determined using a subunit molecular weight of 58,800.

For data set [2], the system named is MAO B. Description: Kinetic analysis of wild-type and mutant MAO B with [14C]benzylamine substrate (transfected COS-7 cell homogenates). The format is biochemical, human. To be noted: for Kcat / Km / Vmax: pH 7.5, 37° C., apparent, mean + S.E.M., n=3; for activity relative to wild-type: activity too low to determine kinetic parameters; for Kcat reduced by: versus wild-type. As for the experimental part:
as §1, §2

The test system of data set [3] is MAO B. Description: pH profiles of wild-type and mutant MAO B enzymatic activity with [14C]benzylamine. Type of data set: biochemical, human. To be noted: pH 6.0 to 9.0, 500 μM benzylamine. As for the experimental part: (§3) Aliquots (20 μl) of transfected COS-7 cell homogenates were incubated for 10 min at 37° C. in the presence of 500 μM (^14C)benzylamine (2.5 mCi/mmol) in 50 mM sodium phosphate buffer, pH 6.0, 6.5, 7.0, 7.5, 8.0, 8.5 or 9.0 (200 μl total volume). Reactions were stopped by addition of 25 μl of 6 N HCl. Parallel assays were carried out with untransfected COS-7 homogenates as a control. Samples were processed as previously described (28) and the derived specific activity values (nmol/min·mg protein) were divided by wild-type or mutant MAO B concentration, determined for each experiment, to obtain enzymatic activity values (nmol/min·m g MAO B). Enzymatic activities were determined in duplicate for three separate experiments.
(§4) To examine the possibility that the mutation effects a proton-dependent step in the reaction, the enzymatic activity of the mutant and wild-type MAO B enzymes was determined at different pH values from 6.0 to 9.0 (FIG. 4).

The subject of data set [4] is MAO B. Briefly: Kinetic analysis of wild-type and mutant MAO B with [14C]PEA substrate (transfected COS-7 cell homogenates). The format is biochemical, human. To be noted: PEA substrate; for Kcat / Km / Vmax: pH 7.5, 37° C., apparent, mean + S.E.M., n=3; for activity relative to wild-type: activity too low to determine kinetic parameters. As for the experimental part: as §1, §2

The target in data set [5] is T1, MAO B (Homo sapiens, UniProt P27338, F423A).
T1 construct: expressed in transfected cells; host or cells: COS-7
T1 sequence (P27338 2-520 F423A): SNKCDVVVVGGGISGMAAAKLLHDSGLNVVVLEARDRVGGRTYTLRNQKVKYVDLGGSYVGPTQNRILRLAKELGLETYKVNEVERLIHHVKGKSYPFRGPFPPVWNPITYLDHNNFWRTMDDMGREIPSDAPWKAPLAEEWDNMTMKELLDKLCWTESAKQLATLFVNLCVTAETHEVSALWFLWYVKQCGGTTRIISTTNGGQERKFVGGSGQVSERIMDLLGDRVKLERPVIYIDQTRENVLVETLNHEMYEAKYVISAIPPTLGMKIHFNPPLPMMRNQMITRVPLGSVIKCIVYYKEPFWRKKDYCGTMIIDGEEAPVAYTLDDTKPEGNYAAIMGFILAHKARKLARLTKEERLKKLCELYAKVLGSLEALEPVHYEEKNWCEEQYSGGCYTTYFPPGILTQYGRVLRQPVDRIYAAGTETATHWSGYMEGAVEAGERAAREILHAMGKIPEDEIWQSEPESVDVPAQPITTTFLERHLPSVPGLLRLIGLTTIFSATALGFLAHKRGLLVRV
Described as above. To be noted: substrate not stated in the sentence (Tables 1 and 2: PEA and benzylamine). The format is biochemical. The protocol: as §1, §2

For data set [6], the target named is T2, MAO B (Homo sapiens, UniProt P27338, E427Q).
T2 construct: expressed in transfected cells; host or cells: COS-7
T2 sequence (P27338 2-520 E427Q): T1 sequence (P27338 2-520 F423A) with A422F, E426Q
Description: pH profiles of wild-type and mutant MAO B enzymatic activity with [14C]benzylamine. The format is biochemical. To be noted: pH 6.0 to 9.0, 500 μM benzylamine. The protocol: as §3, §4

B1: WT: wild-type human MAO B enzyme expressed from cDNA in pSVK3 in COS-7 cells (protein, UniProt P27338 2-520, looked up)
Amine oxidase …: T1 sequence (P27338 2-520 F423A) with A422F
Broadly, the Km is the concentration of substrate that gives half-maximal velocity. With B1, the Expression level in data set [1] is 11.1+2.07 pmol MAO B/mg protein. For the same molecule, in data set [2], the Kcat is 83.0 + 14.4 min^−1, the Km turned out to be 19.3 µM and the Vmax is 0.879 + 0.19 nmol/min · mg protein. Besides, in data set [3], the “pH profile of enzymatic activity” value is on record as “characteristic increase in activity with increasing pH”. Besides, in data set [4], the Kcat is given as 29.8 + 5.0 min^−1, the Km was 3.38 µM and the Vmax is reported as 0.325 + 0.008 nmol/min · mg protein.

B2: F423 A: human MAO B mutant, Phe residue at position 423 changed to Ala (protein, UniProt P27338 2-520, looked up, variant F423A)
Amine oxidase …: T1 sequence (P27338 2-520 F423A)
On to B2, for which the Expression level in data set [1] was 9.30+1.89 pmol MAO B/mg protein. Besides, the “activity relative to wild-type” value in data set [2] and in data set [4] was “(<5% wt)” each time. For the same molecule, the “pH profile of enzymatic activity” value in data set [3] is given as “fairly similar to wild-type MAO B”. In addition, the “decrease in activity compared to the wild-type enzyme” value in data set [5] is listed as more than 95 % reduction.

B3: T428 S: human MAO B mutant, Thr428 changed to Ser (protein, UniProt P27338 2-520, looked up, variant T428S)
Amine oxidase …: T1 sequence (P27338 2-520 F423A) with A422F, T427S
B3: in data set [1], the Expression level is given as 10.2+1.53 pmol MAO B/mg protein. In addition, in data set [2], the “Km compared with wild-type” value is listed as “approximately equal to wild-type”, the Kcat is 27.2 + 5.8 min^−1, the Km stood at 5.4 µM and the Vmax is on record as 0.236 + 0.05 nmol/min · mg protein. Moreover, the “Kcat reduced by” value in data set [2] turned out to be 67%. Moreover, in data set [4], the “Kcat relative to wild-type (reduction)” value was ~50 % of wild-type, the Kcat is listed as 14.5 + 2.0 min^−1, the Km was determined as 11.6 µM and the Vmax is listed as 0.162 + 0.22 nmol/min · mg protein.

B4: E427 Q: human MAO B mutant, Glu427 changed to Gln (protein, UniProt P27338 2-520, looked up, variant E427Q)
Amine oxidase …: T1 sequence (P27338 2-520 F423A) with A422F, E426Q
With B4, the Expression level in data set [1] is reported as 10.3+1.29 pmol MAO B/mg protein. The “activity relative to wild-type” value in data set [2] is “(<5% wt)”; in data set [2] (listed as E427Q), less than 5 % wt; in data set [6], < 5 % of wild-type; in data set [4], “(<5% wt)”; in data set [4] (listed as E427Q), less than 5 % wt. The “pH profile of enzymatic activity” value in data set [3] is “essentially independent of pH”.

B5: T428 A: human MAO B mutant, Thr428 changed to Ala (protein, UniProt P27338 2-520, looked up, variant T428A)
Amine oxidase …: T1 sequence (P27338 2-520 F423A) with A422F, T427A
With B5, the Expression level in data set [1] is given as 10.2+2.07 pmol MAO B/mg protein. For the same molecule, in data set [2], the “Km compared with wild-type” value is on record as “approximately equal to wild-type”, the Kcat is listed as 46.2 + 19.1 min^−1, the Km stood at 18.6 µM and the Vmax is 0.374 + 0.06 nmol/min · mg protein. Further, the “Kcat reduced by” value in data set [2] is listed as 44%. Also, in data set [4], the “Kcat relative to wild-type (reduction)” value is listed as ~50 % of wild-type, the Kcat is given as 14.3 + 2.6 min^−1, the Km is 11.1 µM and the Vmax is 0.161 + 0.039 nmol/min · mg protein.
